Data reported in publication PMC2693498, “The triple combination of tenofovir, emtricitabine and efavirenz shows synergistic anti-HIV-1 activity in vitro: a mechanism of action study”.

Key:
[1] = target: T1, HIV-1 reverse transcriptase p66/p51, wild-type (HIV-1, UniProt P04585;P04585 588-1147;588-1027); experiment: EMSA; EFV titrated (ligand Kd); Bmax 5.53%; DEC binding buffer not in the material; 6% non-denaturing PAGE; DEC defined as resistant to excess competitor template; primer/template annealed 1:1.3 in 50 mM; conditions: protein: recombinant; tags: N-terminal 6-His; copies: 1;1; label: 5'-32P primer; template overhangs: 5' 8 nt, 3' 8 nt
[2] = target: T1, HIV-1 reverse transcriptase p66/p51, …; experiment: EMSA; dATP titrated (ligand Kd); Bmax 38.0%; DEC binding buffer not in the material; 6% non-denaturing PAGE; DEC defined as resistant to excess competitor template; primer/template annealed 1:1.3 in 50 mM; conditions: protein: recombinant; tags: N-terminal 6-His; copies: 1;1; label: 5'-32P primer; template overhangs: 5' 8 nt, 3' 8 nt
[3] = target: T1, HIV-1 reverse transcriptase p66/p51, …; experiment: EMSA; EFV titrated (ligand Kd); Bmax 14.9%; DEC binding buffer not in the material; 6% non-denaturing PAGE; DEC defined as resistant to excess competitor template; primer/template annealed 1:1.3 in 50 mM; conditions: protein: recombinant; tags: N-terminal 6-His; copies: 1;1; label: 5'-32P primer; template overhangs: 5' 8 nt, 3' 8 nt
[4] = target: T1, HIV-1 reverse transcriptase p66/p51, …; experiment: EMSA; TFV-DP titrated (ligand Kd); Bmax 15.3%; DEC binding buffer not in the material; 6% non-denaturing PAGE; DEC defined as resistant to excess competitor template; primer/template annealed 1:1.3 in 50 mM; conditions: protein: recombinant; tags: N-terminal 6-His; copies: 1;1; label: 5'-32P primer; template overhangs: 5' 8 nt, 3' 8 nt
[5] = target: T1, HIV-1 reverse transcriptase p66/p51, …; experiment: EMSA; EFV titrated (ligand Kd); Bmax 11.2%; DEC binding buffer not in the material; 6% non-denaturing PAGE; DEC defined as resistant to excess competitor template; primer/template annealed 1:1.3 in 50 mM; conditions: protein: recombinant; tags: N-terminal 6-His; copies: 1;1; label: 5'-32P primer; template 5' overhang 24 nt, other end blunt
[6] = target: T1, HIV-1 reverse transcriptase p66/p51, …; experiment: EMSA; FTC-TP titrated (ligand Kd); Bmax 60.2%; DEC binding buffer not in the material; 6% non-denaturing PAGE; DEC defined as resistant to excess competitor template; primer/template annealed 1:1.3 in 50 mM; conditions: protein: recombinant; tags: N-terminal 6-His; copies: 1;1; label: 5'-32P primer; template 5' overhang 24 nt, other end blunt
[7] = target: T1, HIV-1 reverse transcriptase p66/p51, …; experiment: EMSA; dCTP titrated (ligand Kd); Bmax 55.8%; DEC binding buffer not in the material; 6% non-denaturing PAGE; DEC defined as resistant to excess competitor template; primer/template annealed 1:1.3 in 50 mM; conditions: protein: recombinant; tags: N-terminal 6-His; copies: 1;1; label: 5'-32P primer; template 5' overhang 24 nt, other end blunt
[8] = target: T1, HIV-1 reverse transcriptase p66/p51, …; experiment: EMSA; EFV titrated (ligand Kd); Bmax 10.6%; DEC binding buffer not in the material; 6% non-denaturing PAGE; DEC defined as resistant to excess competitor template; primer/template annealed 1:1.3 in 50 mM; conditions: protein: recombinant; tags: N-terminal 6-His; copies: 1;1; label: 5'-32P primer; template 5' overhang 23 nt, other end blunt
[9] = target: T1, HIV-1 reverse transcriptase p66/p51, …; experiment: EMSA; TFV-DP titrated (ligand Kd); Bmax 55%; DEC binding buffer not in the material; 6% non-denaturing PAGE; DEC defined as resistant to excess competitor template; primer/template annealed 1:1.3 in 50 mM; conditions: protein: recombinant; tags: N-terminal 6-His; copies: 1;1; label: 5'-32P primer; template 5' overhang 23 nt, other end blunt
[10] = target: T1, HIV-1 reverse transcriptase p66/p51, …; experiment: EMSA; dATP titrated (ligand Kd); Bmax 60%; DEC binding buffer not in the material; 6% non-denaturing PAGE; DEC defined as resistant to excess competitor template; primer/template annealed 1:1.3 in 50 mM; conditions: protein: recombinant; tags: N-terminal 6-His; copies: 1;1; label: 5'-32P primer; template 5' overhang 23 nt, other end blunt
[11] = target: T1, HIV-1 reverse transcriptase p66/p51, …; experiment: EMSA; dCTP titrated (ligand Kd); Bmax 50.0%; DEC binding buffer not in the material; 6% non-denaturing PAGE; DEC defined as resistant to excess competitor template; primer/template annealed 1:1.3 in 50 mM; conditions: protein: recombinant; tags: N-terminal 6-His; copies: 1;1; label: 5'-32P primer; template 5' overhang 24 nt, other end blunt
[12] = target: T1, HIV-1 reverse transcriptase p66/p51, …; experiment: EMSA; EFV titrated (ligand Kd); Bmax 44.4%; DEC binding buffer not in the material; 6% non-denaturing PAGE; DEC defined as resistant to excess competitor template; primer/template annealed 1:1.3 in 50 mM; conditions: protein: recombinant; tags: N-terminal 6-His; copies: 1;1; label: 5'-32P primer; template 5' overhang 24 nt, other end blunt
[13] = target: T1, HIV-1 reverse transcriptase p66/p51, …; experiment: EMSA; FTC-TP titrated (ligand Kd); Bmax 50.0%; DEC binding buffer not in the material; 6% non-denaturing PAGE; DEC defined as resistant to excess competitor template; primer/template annealed 1:1.3 in 50 mM; conditions: protein: recombinant; tags: N-terminal 6-His; copies: 1;1; label: 5'-32P primer; template 5' overhang 24 nt, other end blunt
[14] = target: T1, HIV-1 reverse transcriptase p66/p51, …; experiment: EMSA; EFV titrated (ligand Kd); Bmax 3.96%; DEC binding buffer not in the material; 6% non-denaturing PAGE; DEC defined as resistant to excess competitor template; primer/template annealed 1:1.3 in 50 mM; conditions: protein: recombinant; tags: N-terminal 6-His; copies: 1;1; label: 5'-32P primer; template 5' overhang 23 nt, other end blunt

B1: D20/D36C, FTC-MP-terminated (dsDNA)
DNA 1: GTCCCTGTTCGGGCGCCACC
DNA 2: TCTCTAATGGTGGCGCCCGAACAGGGACCTGAAAGC
modifications: 3'-terminal C of primer is emtricitabine-MP
For B1, the “apparent K (half saturation)” value [1] was 1540 ± 330 nM.

B2: D20/D36C, ddCMP-terminated (dsDNA)
DNA 1: GTCCCTGTTCGGGCGCCACC
DNA 2: TCTCTAATGGTGGCGCCCGAACAGGGACCTGAAAGC
modifications: 3'-terminal C of primer is ddCMP
With B2 the “apparent K (half saturation)” value [2] was 16.9 ± 8.5 µM, the “apparent K (half saturation)” value [3] was 1030 ± 250 nM and the “apparent K (half saturation)” value [4] was 445 ± 114 µM.

B3: D26/D50, ddAMP-terminated (dsDNA)
DNA 1: CTGAGACAACATCTGCTGAGGTAGGA
DNA 2: TGTCGTGTGGTGTCGTGTGGTATGTCCTACCTCAGCAGATGTTGTCTCAG
modifications: 3'-terminal A of primer is ddAMP
With B3 the “apparent K (half saturation)” value [5] was 2420 ± 1100 nM, the “apparent K (half saturation)” value [6] was 86.8 ± 0.2 µM and the “apparent K (half saturation)” value [7] was 8.1 ± 2.1 µM.

B4: D27/D50, ddCMP-terminated (dsDNA)
DNA 1: CTGAGACAACATCTGCTGAGGTAGGAC
DNA 2: TGTCGTGTGGTGTCGTGTGGTATGTCCTACCTCAGCAGATGTTGTCTCAG
modifications: 3'-terminal C of primer is ddCMP
In the case of B4, the “apparent K (half saturation)” value [8] is reported as 110 ± 60 nM, the “apparent K (half saturation)” value [9] is reported as 140 ± 19 µM and the “apparent K (half saturation)” value [10] is reported as 6.5 ± 2.6 µM.

B5: D26/D50, TFV-terminated (dsDNA)
DNA 1: CTGAGACAACATCTGCTGAGGTAGGA
DNA 2: TGTCGTGTGGTGTCGTGTGGTATGTCCTACCTCAGCAGATGTTGTCTCAG
modifications: 3'-terminal A of primer is tenofovir (chain terminator)
For B5, the “apparent K (half saturation)” value [11] was 179 ± 33 µM, the “apparent K (half saturation)” value [12] was 1220 ± 280 nM and the “apparent K (half saturation)” value [13] was 46.5 ± 7.8 µM.

B6: D27/D50, FTC-MP-terminated (dsDNA)
DNA 1: CTGAGACAACATCTGCTGAGGTAGGAC
DNA 2: TGTCGTGTGGTGTCGTGTGGTATGTCCTACCTCAGCAGATGTTGTCTCAG
modifications: 3'-terminal C of primer is emtricitabine-MP
For B6, the “apparent K (half saturation)” value [14] was 1260 ± 240 nM.
